Common to all, as to experiment: other fluorescence titration
In experiment [1] the target is recombinant RHOA^L57V (human) (UniProt P61586).
Experiment [2] has as its target recombinant RHOA^WT (human) (UniProt P61586).
Experiment [3] has as its target recombinant RHOA^WT (human, UniProt P61586 1-193).
The target of experiment [4] is recombinant RHOA^L57V (human, UniProt P61586 1-193, L57V).
Chain of recombinant RHOA^L57V (P61586 whole entry L57V): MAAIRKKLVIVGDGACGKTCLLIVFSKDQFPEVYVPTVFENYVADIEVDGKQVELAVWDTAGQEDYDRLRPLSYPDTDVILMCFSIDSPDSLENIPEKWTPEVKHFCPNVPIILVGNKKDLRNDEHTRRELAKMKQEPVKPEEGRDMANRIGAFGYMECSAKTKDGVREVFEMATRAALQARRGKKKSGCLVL

Chain of recombinant RHOA^L57V (human) (P61586 whole entry L57V): as above
Chain of recombinant RHOA^WT (human) (P61586 whole entry): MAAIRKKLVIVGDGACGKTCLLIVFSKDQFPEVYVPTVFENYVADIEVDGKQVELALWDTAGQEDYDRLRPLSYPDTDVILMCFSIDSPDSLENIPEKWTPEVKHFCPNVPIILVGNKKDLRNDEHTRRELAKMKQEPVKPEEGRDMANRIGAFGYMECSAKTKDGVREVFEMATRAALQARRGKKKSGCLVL
Chain of recombinant RHOA^WT (P61586 whole entry): as above

Broadly, the Kd is the constant that tells how readily two partners part at equilibrium. On to GST-ROCK1-RBD (domain or fragment), for which the dissociation constant (Kd) in experiment [1] stood at 243 nM; in experiment [2], 439 nM.

B1: GST-Rhotekin-RBD (domain or fragment, mouse, UniProt Q8C6B2-2 7-89, looked up)
chain: ILEDLNMLYIRQMALSLEDTELQRKLDHEIRMRDGACKLLAACSQREQALEATKSLLVCNSRILSYMGELQRRKEAQVLEKTG
With B1, the dissociation constant (Kd) in experiment [3] was determined as 258 ± 15 nM; in experiment [4], 220 ± 10 nM.

These data come from PMC10791543 (Science signaling, 2023).
